These results are taken from patent US20160089418A1.

Bounds are passed on as bounds.

The target in assay [1] is recombinant human IFN-alpha (human). Nature of the assay: cell-based or functional assay.
A further assay deals with human IFN-beta (human) (UniProt P01574). Nature of the assay: cell-based or functional assay.
UniProt P01574, sequence (P01574 22-187 limits assumed): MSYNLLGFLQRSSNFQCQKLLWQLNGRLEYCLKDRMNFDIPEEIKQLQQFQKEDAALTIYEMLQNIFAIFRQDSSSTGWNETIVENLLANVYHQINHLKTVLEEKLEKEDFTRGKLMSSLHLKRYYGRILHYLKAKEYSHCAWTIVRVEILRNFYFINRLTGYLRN

Take “Vaccinia virus B19 IFN-binding protein (full length protein) (from UniProt P25213 20-351)”: the percent neutralization of IFN at a 1:400 dilution of the medium was more than 80% in assay [1] and more than 50% in the assay with human IFN-beta (human).
